# Assay results as given in paper PMC12753105.
# Key:
# [1] = molecular target: SARS-CoV-2 N-protein N:G215C (reduced), full length (SARS-CoV-2) (UniProt P0DTC9); assay: AUC
# [2] = molecular target: SARS-CoV-2 N-protein N:G215C (reduced), full length (SARS-CoV-2) (UniProt P0DTC9); assay: mass photometry
# [3] = molecular target: SARS-CoV-2 N-protein N:G215C* (oxidized), full length (SARS-CoV-2) (UniProt P0DTC9); assay: mass photometry
# [4] = molecular target: SARS-CoV-2 N-protein N:R203K/G204R, full length (SARS-CoV-2) (UniProt P0DTC9); assay: mass photometry
# [5] = molecular target: SARS-CoV-2 N-protein Nο (N:P13L/Δ31–33/R203K/G204R), full length (SARS-CoV-2) (UniProt P0DTC9); assay: mass photometry
substance,measurement,setting,value
"SARS-CoV-2 N-protein N:G215C (reduced), full length (from UniProt P0DTC9 1-419) (natural protein)",Kd,[1],1 µM
same,best-fit effective RNP life-time (with SL7 RNA),[2],231 s
"SARS-CoV-2 N-protein N:G215C* (oxidized), full length (from UniProt P0DTC9 1-419) (natural protein)",best-fit effective RNP life-time (with SL7 RNA),[3],41.8 s
"SARS-CoV-2 N-protein N:R203K/G204R, full length (from UniProt P0DTC9 1-419) (natural protein)",best-fit effective RNP life-time (with SL7 RNA),[4],54.6 s
"SARS-CoV-2 N-protein Nο (N:P13L/Δ31–33/R203K/G204R), full length (from UniProt P0DTC9 1-419) (natural protein)",best-fit effective RNP life-time (with SL7 RNA),[5],58.5 s
